Test results from publication PMC4297426.

Target: Gal4 (BD)-human NP: nucleoprotein of the contemporary human IAV H3N2 strain A/Ca/07/04 (influenza A virus H3N2, strain A/Ca/07/04 (human))
Test: two-hybrid

Row | Substance | β-Gal activity
1 | ATPase, Na+/K+ transporting, beta 1 polypeptide (ATP1B1) (domain or fragment) | 3.4 Miller units
2 | Acyl-CoA thioesterase 13 (ACOT13) (from UniProt Q9NPJ3 1-140) (natural protein) | 6.9 Miller units
3 | Cytoskeleton associated protein 5 (CKAP5) (domain or fragment) | 70.1 Miller units
4 | FLJ30306 (…: Homo sapiens uncharacterized LOC101059922, mRNA) (natural protein) | 1.9 Miller units
5 | Myb/SANT-like DNA-binding domain containing 3 (MSANTD3) (domain or fragment) | 13.9 Miller units
6 | Potassium channel tetramerisation domain containing 9 (KCTD9) (domain or fragment) | 5 Miller units
7 | Proteasome (prosome, macropain) activator subunit 2 (PA28B) (from UniProt Q9UL46 1-239) (natural protein) | 6.7 Miller units
8 | Solute carrier family 30 (zinc transporter), member 9 (SLC30A9) (domain or fragment) | 82.9 Miller units
9 | Transformer 2 beta homolog (Drosophila) (TRA2B) (from UniProt P62995 1-288) (natural protein) | 1.9 Miller units
10 | phosphoribosylaminoimidazole carboxylase, phosphoribosylaminoimidazole succinocarboxamide synthetase (PAICS) (from UniProt P22234 1-425) (natural protein) | 2.2 Miller units
